What was measured:
[1] = target: ED-tagged human SIRPα V2 receptor on Jurkat signaling reporter cells (human, UniProt P78324 31-504); test: cell-based or functional assay
[2] = target: ED-tagged human SIRPα V1 receptor on Jurkat signaling reporter cells (human, UniProt P78324 31-504); test: cell-based or functional assay
[3] = target: T1, full-length human SIRPαV1 (NP_542970.1) on cells (human, UniProt P78324 31-504); test: flow cytometry, CD14+ monocytes V1V1
T1 construct: one molecule for CHO-K1 and Expi-CHO transfectants (NP_542970.1) and for endogenous V1 on U-937 cells and on CD14+ monocytes of V1/V1 donors; also called CHO-hSIRPαV1; αV1 WT
Method: (§1) Antibody binding to primary human cells expressing SIRPα is evaluated by flow cytometry. Human peripheral blood mononuclear cells (PBMCs) from donors genotyped as homozygous for the SIRPα V1 allele, V2 allele, or heterozygous for both alleles are blocked with donkey IgG and incubated on ice with increasing concentrations of antibody for 60 minutes, washed and stained with AF647-conjugated donkey F(ab′)₂ anti-human IgG secondary reagent. […] Cells are washed, fixed, and analyzed by flow cytometry. Median fluorescent intensity of the CD14+ population was determined and used as a measure of antibody binding.

[4] = target: T2, full-length human SIRPγ (NP_061026.2) on cells (human, UniProt Q9P1W8 29-387); test: flow cytometry, primary human CD3+ T cells (endogenous SIRPγ)
T2 construct: also called CHO-hSIRPγ; γ WT
Method: Antibody binding to primary human T cells expressing endogenous SIRPγ is evaluated by flow cytometry. Human peripheral blood mononuclear cells (PBMCs) are blocked with donkey IgG and incubated on ice with increasing concentrations of antibody for 60 minutes, washed and stained with AF647-conjugated donkey F(ab′)₂ anti-human IgG secondary reagent. […] Cells are washed, fixed, and analyzed by flow cytometry. Median fluorescent intensity of CD3+ gated population is determined and used as a measure of antibody binding.

[5] = target: T3, full-length human SIRPαV2 (CAA71403.1) on cells (human, UniProt P78324 31-504); test: flow cytometry, competition with CD47 tetramer, monocytes V2V2
T3 construct: one molecule for CHO-K1 and Expi-CHO transfectants (CAA71403.1) and for endogenous V2 on THP-1 cells and on CD14+ monocytes of V2/V2 donors; also called CHO-hSIRPαV2; αV2 WT
Method: Cells are washed, fixed, and analyzed by flow cytometry. Median fluorescent intensity of CD14+gated population is determined and used as a measure of CD47 binding.

[6] = target: T3, full-length human SIRPαV2 (CAA71403.1) …; test: flow cytometry, CD14+ monocytes V2V2
Method: as §1

[7] = target: T4, full-length human SIRPβL (NP_001129316.1) on cells (human, UniProt Q5TFQ8 30-398); test: flow cytometry, U937 SIRPα-KO transfectants
T4 construct: one molecule for U937 SIRPα-KO transfectants (NP_001129316.1) and Expi-CHO transfectants (Q5TFQ8); also called SIRPβ1v3; βL WT
Method: (§2) Antibody binding to cells expressing full-length human SIRPβ1 (NP_006056.2) and SIRPβL (NP_001129316.1) is evaluated by flow cytometry. SIRPβ1- or SIRPβL-expressing U937^{SIRPα KO} cells are blocked with donkey IgG and incubated on ice with increasing concentrations of antibodies for 60 minutes, washed and stained with AF647-conjugated donkey F(ab′)₂ anti-human IgG secondary reagent. Cells are washed, fixed, and analyzed by flow cytometry. Median fluorescent intensity is determined and used as a measure of antibody binding.

[8] = target: T5, full-length human SIRPγ E→D on Expi-CHO cells (human, UniProt Q9P1W8 29-387); test: flow cytometry, Expi-CHO cells expressing full-length human SIRPγ E→D
T5 construct: the entry already carries the change (PENV to PDNV)
Method: (§3) Expi-CHO parental cells are transduced with lentiviruses containing either full-length wild-type human SIRPγ ([…]) or full-length human SIRPγ with amino acid point mutations (Table 64) and sorted to achieve matching expression levels. These cells are blocked with donkey IgG and incubated on ice with increasing concentrations of antibodies for 60 minutes, washed and stained with AF647-conjugated donkey F(ab′)₂ anti-human IgG antibodies. Stained cells are washed, fixed, and analyzed by flow cytometry. Median fluorescent intensity is determined and used as a measure of antibody binding.

[9] = target: T4, full-length human SIRPβL …; test: flow cytometry, Expi-CHO cells expressing full-length wild-type human SIRPβL
Method: (§4) Expi-CHO parental cells are transduced with lentiviruses containing either full-length wild-type human SIRPβL (Q5TFQ8) or full-length human SIRPβL with a single amino acid point mutation (Table 62) and sorted to achieve matching expression levels. These cells are blocked with donkey IgG and incubated on ice with increasing concentrations of antibodies for 60 minutes, washed and stained with AF647-conjugated donkey F(ab′)₂ anti-human IgG antibodies. Stained cells are washed, fixed, and analyzed by flow cytometry. Median fluorescent intensity is determined and used as a measure of antibody binding.
(§5) A single amino acid substitution (H→D) introduced within the loop region maintained, strengthened, or facilitated antibody binding to these cells (FIG. 34B, Table 63).

[10] = target: T6, full-length human SIRPβ1 D→H on Expi-CHO cells (human, UniProt O00241 30-398); test: flow cytometry, Expi-CHO cells expressing full-length human SIRPβ1 D→H
T6 construct: the entry already carries the change (PDDV to PDHV)
Method: (§6) These cells are blocked with donkey IgG and incubated on ice with increasing concentrations of antibodies for 60 minutes, washed and stained with AF647-conjugated donkey F(ab′)₂ anti-human IgG antibodies. Stained cells are washed, fixed, and analyzed by flow cytometry. Median fluorescent intensity is determined and used as a measure of antibody binding.

[11] = target: T7, full-length human SIRPγ N→D on Expi-CHO cells (human, UniProt Q9P1W8 29-387); test: flow cytometry, Expi-CHO cells
T7 construct: the entry already carries the change (PENV to PEDV)
Method: as §3

[12] = target: T8, full-length human SIRPγ EN→DD on Expi-CHO cells (human, UniProt Q9P1W8 29-387); test: flow cytometry, Expi-CHO cells
T8 construct: the entry already carries the change (PENV to PDDV)
T8 chain: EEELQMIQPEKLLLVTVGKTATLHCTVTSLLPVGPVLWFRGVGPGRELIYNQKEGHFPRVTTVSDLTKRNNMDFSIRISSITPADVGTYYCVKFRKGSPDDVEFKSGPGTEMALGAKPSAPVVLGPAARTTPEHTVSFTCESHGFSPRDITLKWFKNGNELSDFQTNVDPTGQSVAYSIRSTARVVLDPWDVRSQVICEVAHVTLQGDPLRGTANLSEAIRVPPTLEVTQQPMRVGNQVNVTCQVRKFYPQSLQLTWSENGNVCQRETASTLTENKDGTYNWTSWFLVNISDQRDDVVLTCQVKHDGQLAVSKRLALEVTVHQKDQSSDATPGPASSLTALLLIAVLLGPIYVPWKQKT
Method: as §3

[13] = target: T9, full-length human SIRPβ1 (NP_006056.2) on cells (human, UniProt O00241 30-398); test: flow cytometry, Expi-CHO cells
T9 construct: also called β1 WT
Method: as §6

[14] = target: T2, full-length human SIRPγ (NP_061026.2) …; test: flow cytometry, Expi-CHO cells expressing full-length wild-type human SIRPγ
Method: as §6, with “[…] These” for “These”

[15] = target: T10, full-length human SIRPβL H→D on Expi-CHO cells (human, UniProt Q5TFQ8 30-398); test: flow cytometry, Expi-CHO cells
T10 construct: the entry already carries the change (PDHV to PDDV); also called βL WT H→D
Method: as §4, §5

[16] = target: T9, full-length human SIRPβ1 (NP_006056.2) …; test: flow cytometry, U937 SIRPα-KO transfectants
Method: as §2

[17] = target: T4, full-length human SIRPβL …; test: flow cytometry, U937 SIRPα-KO cells expressing full-length human SIRPβL
Method: as §2

B1: Antibody G (antibody, human IgG4 S228P, kappa)
heavy: not shown
light: DIVMTQSPLSLPVTPGEPASISCKSSQSLLYSNGYNYLDWYLQRPGQSPQLLIYLGSNRASGVPDRFSGSGSGTDFTLKISRVEAEDVGVFYCMQALQTPLTFGGGTKVEIKRTVAAPSVFIFPPSDEQLKSGTASVVCLLNNFYPREAKVQWKVDNALQSGNSQESVTEQDSKDSTYSLSSTLTLSKADYEKHKVYACEVTHQGLSSPVTKSFNRGEC
Blockade of Cellular CD47-Mediated SIRPα Signaling; IC50 [1]: 0.03 nM | Blockade of Cellular CD47-Mediated SIRPα Signaling; IC50 [2]: 0.04 nM | EC50 [3]: 0.3 nM | binding result [4]: no binding (tested: about 67 nM) | IC50 [5]: 0.22 nM | EC50 [6]: 0.4 nM | EC50 [7]: 0.3 nM

B2: Antibody A4 (antibody, human IgG1, kappa, L234A L235A, V domains shown)
VH: EVQLVESGGGLVQPGGSLRLSCAASGFTLSSYDMHWVRQAPGKGLEWVSAIGTAGDTYYTGSVKGRFTISRENAKNSLYLQMNSLRAADTAVYYCVRGGVWDDAFDIWGQGTMVTVSS
VL: DIQMTQSPSSLSASVGDRVTITCRASQGINNYAAWFQQKPGKAPKSLIYTASSLHSGVPSKFSGSGSGTDFTLTISSLQPEDFATYYCQQYVSYPYTFGQGTKLEIKR
binding result [8]: no binding (tested: about 67 nM) | Blockade of Cellular CD47-Mediated SIRPα Signaling; IC50 [1]: 0.05 nM | Blockade of Cellular CD47-Mediated SIRPα Signaling; IC50 [2]: 0.04 nM | binding result [9]: no binding (tested: about 67 nM) | binding result [10]: no binding (tested: about 67 nM) | EC50 [11]: 0.5 nM | EC50 [12]: 0.7 nM | EC50 [13]: 1.5 nM | binding result [14]: no binding (tested: about 67 nM) | EC50 [15]: 0.5 nM | EC50 [16]: 0.2 nM

B3: Antibody F (antibody, human IgG4 S228P, kappa)
heavy: not shown
light: DIQMTQSPSSLSASVGDRVTITCRASQDINNYLAWFQQKPGKAPKSLIYTASSLHSGVPSKFSGSGSGTDFTLTISSLQPEDFATYYCQQYVSYPYTFGQGTKLEIKRTVAAPSVFIFPPSDEQLKSGTASVVCLLNNFYPREAKVQWKVDNALQSGNSQESVTEQDSKDSTYSLSSTLTLSKADYEKHKVYACEVTHQGLSSPVTKSFNRGEC
Blockade of Cellular CD47-Mediated SIRPα Signaling; IC50 [1]: 0.03 nM | Blockade of Cellular CD47-Mediated SIRPα Signaling; IC50 [2]: 0.04 nM | binding result [4]: no binding (tested: about 67 nM) | binding result [17]: no binding (tested: about 200 nM) | EC50 [16]: 0.2 nM
